Source: publication PMC4208761, “Molecular Insights into the Interaction between Plasmodium falciparum Apical Membrane Antigen 1 and an Invasion-Inhibitory Peptide” (PLoS ONE, 2014)
Entries after “also recorded” stand apart in the source; their conditions may differ. No end group written: not given here.

Columns and labels:
[1] = target: T1, 3D7 PfAMA1_104–442 (Plasmodium falciparum, UniProt Q7KQK5); assay: SPR analysis of peptides binding to immobilized AMA1 (Biacore T200); details: 25°C; for fold reduction in affinity for AMA1 relative to R1_5–16: SPR alanine scan, 1% DMSO in HBS-EP; for Equilibrium dissociation constant K D, truncated R1: SPR, AMA1 immobilized on CM5 chip, HBS-EP running buffer pH 7.4, no DMSO, kinetic 1:1 fit (native R1) or steady-state affinity fit, peptide 10 nM to 10 µM, No binding = no binding event up to 10 µM peptide
T1 construct: His6 (TEV-cleavable); made in house
Procedure: A Biacore T200 biosensor instrument was used to measure the affinity of the interaction of peptides with 3D7 PfAMA1_104–442. AMA1 was immobilized onto a CM5 chip as described. Surface plasmon resonance (SPR) experiments were performed at 25°C using HBS-EP (10 mM HEPES, 150 mM NaCl, 3.4 mM EDTA, and 0.05% surfactant P20, pH 7.4) as the running buffer either with (alanine scanning mutagenesis study) or without (truncation study) 1% DMSO. All peptide samples were prepared in the appropriate running buffer. To generate the peptide binding data, peptide at concentrations ranging from 10 nM to 10 µM was injected over immobilized AMA1 at a constant flow rate of 60 µL/min for 1.5 min; peptide dissociation was monitored by flowing running buffer at 60 µL/min for 5 min. The surface was regenerated after each cycle by injecting glycine/HCl at pH 2.0. Sensorgrams were first zeroed on the y-axis and then x-aligned at the start of the injection. Bulk refractive index changes were eliminated by subtracting the reference flow cell responses. For kinetic analysis, ka and kd were determined from the processed data sets by globally fitting to a 1∶1 binding model. For rapidly associating/dissociating truncated peptides, K D was determined by fitting to a steady-state affinity model using a fixed Rmax that was calculated based on the response of R1_5–16.

[2] = target: T2, Domain I+II of 3D7 PfAMA1 (residue 104-442), immobilised for SPR (Plasmodium falciparum 3D7, UniProt Q7KQK5 104-442); assay: SPR; details: both partners purified
T2 sequence (looked up): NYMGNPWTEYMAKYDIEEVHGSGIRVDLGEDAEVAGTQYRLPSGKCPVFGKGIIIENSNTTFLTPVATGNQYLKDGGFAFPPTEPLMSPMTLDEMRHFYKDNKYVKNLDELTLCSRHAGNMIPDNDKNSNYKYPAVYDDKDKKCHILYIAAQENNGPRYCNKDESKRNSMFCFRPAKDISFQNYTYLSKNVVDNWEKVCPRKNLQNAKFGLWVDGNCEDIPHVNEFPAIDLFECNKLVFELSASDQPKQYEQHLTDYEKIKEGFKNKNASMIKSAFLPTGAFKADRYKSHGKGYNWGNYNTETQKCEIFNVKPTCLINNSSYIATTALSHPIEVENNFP

[3] = target: T2, Domain I+II of 3D7 PfAMA1 (residue …); assay: SPR; details: both partners purified; remark: listed apart in the source
[4] = target: T2, Domain I+II of 3D7 PfAMA1 (residue …); assay: SPR; details: both partners purified; remark: listed apart in the source
[5] = target: T3, Fractionally deuterated 3D7 PfAMA1 (residue 104-442), His6 tag cleaved, for NMR (Plasmodium falciparum 3D7, UniProt Q7KQK5 104-442, randomly fractionally deuterated (f-2H)); assay: NMR titration; details: both partners purified
T3 sequence (looked up): T2 sequence (looked up)

## Ac-FAPLFSKFGSRM-NH2 [R1_5–16 L6A]
[1]
  fold reduction in affinity for AMA1 relative to R1_5–16: 33 fold

## Ac-EFLPLFSKFGSRMH-NH2 [R1_4–17]
[1]; SPR truncation study, no DMSO
  reduction of binding affinity relative to native R1: ~10 fold

## Ac-FLPLFSAFGSRM-NH2 [R1_5–16 K11A]
[1]
  fold reduction in affinity for AMA1 relative to R1_5–16: 15 fold

## Ac-FLPLFSKFGSRM-NH2 [R1_5–16]
[1]; SPR truncation study, no DMSO
  reduction of binding affinity relative to native R1: ~10 fold

## R1_11–20: truncated R1 analogue, N-terminally acetylated and C-terminally amidated (Ac-KFGSRMHILK-NH2)
[1]
  Equilibrium dissociation constant K D, truncated R1: No binding ^b

## Ac-FLPLFAKFGSRM-NH2 [R1_5–16 S10A]
[1]
  fold reduction in affinity for AMA1 relative to R1_5–16: less than 3 fold

## Ac-FLPLFSKFGSR-NH2 [R1_5–15]
[1]; SPR truncation study, no DMSO, relative to R1_5–16
  further reduction in K D (affinity) on truncation of R1_5–16 to the 11-residue peptide: ~5 fold

## Ac-FLPLFSKFASRM-NH2 [R1_5–16 G13A]
[1]
  fold reduction in affinity for AMA1 relative to R1_5–16: 21 fold

## R1_1–11: truncated R1 analogue, N-terminally acetylated and C-terminally amidated (Ac-VFAEFLPLFSK-NH2)
[1]
  Equilibrium dissociation constant K D, truncated R1: no detectable binding; also recorded: No binding ^b

## R1_5–14: 10-residue truncated R1 peptide, Arg15 deleted (Ac-FLPLFSKFGS-NH2)
[1]
  Equilibrium dissociation constant K D, truncated R1: abolished measurable binding; also recorded: No binding ^b

## Ac-FLPLFSKAGSRM-NH2 [R1_5–16 F12A]
[1]
  fold reduction in affinity for AMA1 relative to R1_5–16: 48 fold

## Ac-FLALFSKFGSRM-NH2 [R1_5–16 P7A]
[1]
  fold reduction in affinity for AMA1 relative to R1_5–16: 35 fold

## Ac-FLPLFSKFGSRA-NH2 [R1_5–16 M16A]
[1]
  fold reduction in affinity for AMA1 relative to R1_5–16: less than 3 fold

## Ac-FLPLFSKFGARM-NH2 [R1_5–16 S14A]
[1]
  fold reduction in affinity for AMA1 relative to R1_5–16: less than 3 fold

B1: R1_(4-17) (peptide)
peptide: Ac-EFLPLFSKFGSRMH-NH2
notes: source: synthetic peptide (Mimotopes)
[2]
  Kd: 880 nM

B2: Native R1 peptide (peptide)
peptide: VFAEFLPLFSKFGSRMHILK
[2]
  Kd: 110 nM
[3]
  stoichiometry N: 1

B3: R1_(5-15) (peptide)
peptide: Ac-FLPLFSKFGSR-NH2
notes: as for B1
[2]
  Kd: 4600 nM

B4: R1_(5-16) (peptide)
peptide: Ac-FLPLFSKFGSRM-NH2
notes: as for B1
[4]
  Kd: 1.8 µM
[2]
  Kd: 990 nM

B5: R1_(5-16) S14A (peptide)
peptide: Ac-FLPLFSKFGARM-NH2
notes: as for B1
[4]
  Kd: 3.3 µM

B6: R1_(5-16) G13A (peptide)
peptide: Ac-FLPLFSKFASRM-NH2
notes: as for B1
[4]
  Kd: 39 µM

B7: R1_(5-16) M16A (peptide)
peptide: Ac-FLPLFSKFGSRA-NH2
notes: as for B1
[4]
  Kd: 2.7 µM

B8: R1_(5-16) R15A (peptide)
peptide: Ac-FLPLFSKFGSAM-NH2
notes: as for B1
[4]
  Kd: > 100 µM

B9: R1_(5-16) P7A (peptide)
peptide: Ac-FLALFSKFGSRM-NH2
notes: as for B1
[4]
  Kd: 61 µM

B10: R1_(5-16) S10A (peptide)
peptide: Ac-FLPLFAKFGSRM-NH2
notes: as for B1
[4]
  Kd: 4.8 µM

B11: R1_(5-16) K11A (peptide)
peptide: Ac-FLPLFSAFGSRM-NH2
notes: also called Lys11Ala mutant; source: synthetic peptide (Mimotopes)
[4]
  Kd: 27 µM

B12: R1_(5-16) L6A (peptide)
peptide: Ac-FAPLFSKFGSRM-NH2
notes: as for B1
[4]
  Kd: 60 µM

B13: R1_(5-16) F12A (peptide)
peptide: Ac-FLPLFSKAGSRM-NH2
notes: as for B1
[4]
  Kd: 87 µM

B14: Recombinant f-2H, u-13C, 15N-labelled R1 peptide (peptide)
peptide: VFAEFLPLFSKFGSRMHILK
modifications: not fully specified
notes: source: E. coli BL21 (DE3), thioredoxin fusion from pET32a, purified (HisTrap, enterokinase cleavage, HiTrap QFF, RP-HPLC)
[5]
  stoichiometry N: 1
